# Data: the nanobody polyreactivity screen of Harvey et al. (2022)
# Assay: yeast display, Sf9 membrane polyspecificity reagent, FACS + sequencing; frameworks hold sequencing errors
# Outline: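 A nanobody's polyreactivity label depends on the gate it was sorted from. Yeast display cells were stained with 10% biotinylated, detergent-solubilized Sf9 membrane reagent for 1 hour at 4 °C, enriched on streptavidin microbeads and sorted by FACS. The low and high (top ~1%) gates were set on anti-HA fluorescence for expression and streptavidin fluorescence for reagent binding.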
sequence,measurement,value
QVQLVESGGGLVQAGGSLRLSCAASGFIFWPNAMGWYRQPPGKERELVAAISYSGGSTYYADSVKGRFTISRDNAKNTVYLQMNSLKPEDTAVYYCAKLPYRRVDYGYWGQGTQVTVSS,polyreactivity (PSR sort gate),high polyreactivity
QVQLVESGGGLVQAGGSLRLSCAASGFTFYKYVMGWYRPAPGKERELVAAITTSGGSTYYADSVKGRFTISRDNAKNTVYLQMNCLKPEDTAVYYCNARSLHTSEGDYWGQGTQVTVSS,polyreactivity (PSR sort gate),low polyreactivity
QVQLVESGGGLVEAGGSLRLTCAAYGSIFSAYAMGWYRAAPGKERELVAAITRGTSTNYADSVKGRFTISRDNAKNTVYLQMNSLKPEDTAVYYCAVGYNSKLAVGMYYWGLGTQVTVSS,polyreactivity (PSR sort gate),low polyreactivity
QVQLVESAGGLVQAGGSLSLSCAASGITFYRYVMGWYRQAPGKERELVAAISVSGGRTYYADSVKGRFTISRDNAKNTVYLQMNSLKPEDTAVYYCAARWAGSKSATVQYDYWGQGTQVTVSS,polyreactivity (PSR sort gate),high polyreactivity
QVQLVESGGGLVQAGGSLRLSCAASGFTFSKYGMGWYRQAPGKERELVAAISSGGSTHYADSVKGRFTISRDNAKNTVYLQMNILKPADTAVYYCNASSKFAKPQRYYWGQGTQVTVSS,polyreactivity (PSR sort gate),low polyreactivity
QVQLVESGGGLVQAGGSLRLSCAASGFIFTYYAMGWYRQAPGKERELVARITSGGASTYYADSVKGRFTISRDNAKNTVYLQMNSLKPEDTAVYYCAAQARGWGYDYWGQGTQVTVSS,polyreactivity (PSR sort gate),low polyreactivity
QVQLVESGGGLVQAGGSLRLSCAASGNTFSSNAMGWYRQAPGKERELVAAISWSGGRTYYADSVKGRFTISRDNAKNTVYLQMNSLKPEDTAVYYCAAALGRRRTGYDYWGQGTQVTVSS,polyreactivity (PSR sort gate),high polyreactivity
QVQLVESGGGLVQAGGSLRLSCAASGIIFEGYAMGWYRQAPGKERELVAAISQSGGSTRYADSVKGRFTISRDNAKNTVYLQMNSLKPEDTAVYYCAARYILWDGDSWTEFDYWGQGTQVTVSS,polyreactivity (PSR sort gate),low polyreactivity
QVQLVESGGGLVQAGGSLRLSCAASGSTFYYYVMGWYRQAPGKERELVAAISRGGGSTYYADSVKGRFTISRDNAKNTVYLQMNSLKPEDTAVYYCAAASYYVEGDYWGQGTQVTVSS,polyreactivity (PSR sort gate),low polyreactivity
QVQLVESGGGLVQAGGSLRLSCAASGRTFRINTMGWYRQAPGKERELVATITGSGGSTYYADSVKGRFTISRDNAKNTVYLQMNSLKPEDTAVYYCAVRWYDQVSRRGIGYYWGQGTQVTVSS,polyreactivity (PSR sort gate),low polyreactivity
QVQLVESGGGLVQAGGSLRLSCSASGRTFSKYAMAWYRQAPGKERELVAAISKRGGSTSYADSVKGRFTISRDNAKNTVYLQMNSLKREDTAVYYCAATYTYVVPEYDYWGHGTQVTVSS,polyreactivity (PSR sort gate),high polyreactivity
QVQLVESGGGLVQAGGSLRLSCAASGRIFQSYAMGWYRQAPGKERELVAGISTRGGNTYYADSVKGRFTISRDNAKNTVYLQMNSLKPEDTAVYYCAKRDYGRFASDYWGQGTQVTVSS,polyreactivity (PSR sort gate),high polyreactivity
QVQLVESGGGVVQAGGSLRLSCAASGRIIKSYAMGWYRQAPGKERDLVAAITRGGRTSYADSVKGRFTISRDNAKNTVYLQMNSLKPEDTAVYYCADDGGWRYHPFSSLFDYWGQGPQVTVSS,polyreactivity (PSR sort gate),low polyreactivity
QVQLVESGGGLVQAGGSLRLSCAASGFTFAYNAMGWYRQAPGKERELVATISWSGGSTYYADSVKGRFTISRDNAKNTVYLQMNSLKPEDTAVYYCATTIFYTYYGLYDYWGQGTQVTVSS,polyreactivity (PSR sort gate),high polyreactivity
QVQLVESGGGLVQAGGSLRLSCAASGFTFWYYAMGCYRQAPGKERELVPSISSIGGSTYYADSVKGRFTISRDNAKYTVYLQMNSLKPEDTAVYYCAARYKFLRGGVRRDYLGQGTQVTVSS,polyreactivity (PSR sort gate),high polyreactivity
QVQLVESGGGLVQAGGSLRLSCAASGFIFRVNAMGWYRQAPGKEREFVAAITYSGGRTSYADSVKGRFTISRDNAKNTVYLQMNSLKPEDTAVYYCAALLYKPSVHAKYYYWGQGTQVTVSS,polyreactivity (PSR sort gate),high polyreactivity
QVQLVESGGGLVHAGGSLRLSCAASGSTFSRYAMGWYRQAPWKERELVAAISWSGASTYYADSVKWRFTISRDNAKNTVYLQMNSLKPEDTSVYYCAKVARQNWFRYNYDYWGQGTQVTVSS,polyreactivity (PSR sort gate),high polyreactivity
QVHLVESGGGLVQAGGSLRLSCAASGITFRTYALGGYRQAPGKERELVAAITRGDSTYYADSVKGRFTISRDNAKNTVYLQMNILKPEDTAVYYCNTETTDFRRYEYWGQGTQVTVSS,polyreactivity (PSR sort gate),low polyreactivity
QVQLVESGGGLVQAGGSLRLSCAASGITFDYYAMGWYRQEPGKERELVAAISSAGRTYYADSVKGRFTISRDNAKNTVYLQMNSLKPEDTAVYYCAATAFSYYPYHGDYWGQGTQVTVSS,polyreactivity (PSR sort gate),high polyreactivity
QVQLVESGGGLVQAGGSLRLSCAASGFIFRSYAMGWYRPAPGKERELVAAITKSGGRTYYADSVKGRFTISRDNAKNTVYLQMNSLKPEDTAVYYCAADQTSYSTSRRYDYWGQGTQVTVSS,polyreactivity (PSR sort gate),high polyreactivity
QVQLVESGGGLVQAGGSLRLSCAASGSTFQAKAMGWYRQAPGKERELVAAISWRGSSTYYADSVKGRFTISRDNAKNTVYLQMNSLKPEDPAVYYCAAASSGSYYRYEYWGQGTQVTVSS,polyreactivity (PSR sort gate),high polyreactivity
QVQLVESGGGIVQAGGSLRLRCAASGLIFAYNAMGGDRQAPGKEREFVAAINSGGDSTYYADCVKGRFTISRDNAKNTVYLQMNSLKPEDTAVYYCAAVSGNKRYYYWGHGTQVTVSS,polyreactivity (PSR sort gate),low polyreactivity
QVQVVESGGGLVQAGGSLRLSCAASGRTFGGYDMGWYRQAPGKERELVAAISWSGGNTYYADSVKGRFTISRDNAKNTVYLQMNSLKPEDTAVYYCAAGHYVYWYRYQLGRYNYWGQGTQVTVSS,polyreactivity (PSR sort gate),high polyreactivity
QFQLVESGGGLVQAGGSLRLSCAASGFTFAYYAMGWYRQAPGKERELVAAITYSGGSTYYADSVKGRFTISRDNAKNTVYLQMNSLKPEDTAVYDCAAYPSRRRRGDEDDYWGQGTQVTVSS,polyreactivity (PSR sort gate),high polyreactivity
QVQLVESGGGLVQAGGSLRLSCAASGFIFQYYAMGWYRQAPGKERELVAAIRISGGSTYYADSVKGRFTSSRDNAKNTVYLQMNSLKPEDTAVYYCAARQIITKFYTSNGVSSYYWGQGTQVTVSS,polyreactivity (PSR sort gate),high polyreactivity
QVQLVESGGGLVQAGGSLRLSCAASGRIFYTNAMGWYRQAPGKERELVATISLRGGSTYYADSVKGRFTISRDNAKNTVYLQLNSLKPEDTAVYDCAARFWSVYSGNPTYPKYYWGQGTQVTVSS,polyreactivity (PSR sort gate),high polyreactivity
QVQLVESGGGLVQAGGSLRLSCAASGFIFSYYAMGWYRQAPGKERELVATINFSGGRTYYADSVKGRFTISRDNEKNTVYLQMNSLKPEDTAVYYCAASFYSYTSRYPDYYYWGQGTQVTVSS,polyreactivity (PSR sort gate),high polyreactivity
QVQLVESGGGLVQAGGSLRLSCAASGFIFTRNVMGWYRQAPGKEMELVASISKSSGSTYYADSVKGRFTISRDNAKNTVYLQMNSLNPEDTAVYYCATYAKQLSPYYYWGQGIQVTVSS,polyreactivity (PSR sort gate),high polyreactivity
QVQLVESGGGLVQAGGSLRLSCAASGSIFRAYVMGWYRQAPGTERELVAAISRGGSTNYADSVKGRFTISRDNAKNTVFLQMNSLKPEDTAVYYCNAGRGLREDDYWGQGTQVTVSS,polyreactivity (PSR sort gate),low polyreactivity
QVQLVESGGGLVQAGGSLRLSCAASGNTLGYNAAMGWYRQAPGKERELVAAITENGGSTYYADSVKGRFTISRDNAKNTVYLQMNSLKPEDTAVYYCATAPYYYRGAYGFEYWGQGTQVTVSS,polyreactivity (PSR sort gate),low polyreactivity
QVQLVESGGGLVQAGGSLRLSSAASGYILPFYAMGWYRQAPGKERELVASISSSSGRTNYADSVKGRFRISRDYAKNTVFFEMNSLKREVTEVYYCAAAFLSYVSTQYHYDYWGQGTQVSVSS,polyreactivity (PSR sort gate),low polyreactivity
QVQLVESGGGLVQAGGSLRLSCAASGIIFRYYTMGWYRQAPGTERELVAAITSGGSTNYADSVKGRFTISRDNAKNTVYLQMNSLKPEDTAVYYCRQFSVWGYDYWGQGTQVTVSS,polyreactivity (PSR sort gate),high polyreactivity
QVQLVESGGGLVQAGGSLRLSCAASGRNFYFYAMGWYRQAPGKEREFVATISSTGGSTYYADSVKGRFTISRDNAKNTVYLQMNSLKPEDTAVYYCAVRGWYPGFRYDYWGQGTQVTVSS,polyreactivity (PSR sort gate),low polyreactivity
QVQLVESGGGLVQAGGSLRLSCAASGRIFTYYAMGWYRQVPGKERELVAGISGSGTSTYYADSVKGRFTISRDNAKNTVYLQMNSLKPEDTAVYYCAAIRRQKGLWDYYYWGQGTQVTVSS,polyreactivity (PSR sort gate),low polyreactivity
QVQLVESGVRLVQAGGSLRLTCAASGNTFVAYAMGWYRQAPGKERDLVAGITRGGTTYYADSVKGRFTISRDNAKNSVYLQMNSLKPEDTAEYDCAARLGYRYNYWGQGTQVTVSS,polyreactivity (PSR sort gate),high polyreactivity
QVQLVESGGGLVQAGGSLRLSCAASGSILPVNAMGWYRQAPGKERELVAAITSSGSTTYADSVKGRFTISRDNAKNTVYLQMNSLKEEDTAVYYCAADVYWSYYLYYIYKGGYWGQGTQVTVSS,polyreactivity (PSR sort gate),low polyreactivity
QVQLVESGGGLVQAGGSLRLSCAASGTFTVNTMGWYRQAPGKERELVAAISTGDTTTYADSVKGRFTISRDNAKNTVYLQMNSLKPEDTAVYYCNVDIGVYAYESDYWGQGTQVTVSS,polyreactivity (PSR sort gate),low polyreactivity
QVQLVESGGGLVQAGGSLRLSCAASGSIFYYYAIGWYRKAPGKEREFVATIRRSGASTYYADSVKGRFTISRDNAKNTVYLQMNSLKPEDTAVYYCNAASARRPIYEAARWSKYDYWGQGTQVTVSS,polyreactivity (PSR sort gate),low polyreactivity
QVQLVESGGGLVQAGGSLRLSCAASGRILKRKAMGLYRQAPGKERELVAAISWSTGTTYYADSVKGRLTISVDNAKNTVYLQMNSLKPEDTAVYYCAKKIVSGRRVDRNDYWGQGTQVTVSS,polyreactivity (PSR sort gate),low polyreactivity
QVQLVESGGGLVQAGGSLRLSCAASGNTFVTYAMGWYRQAPGKVRELVATISSSGGSTYYADSVKGRFTISRDNAKNTVYLQMNSLKPEDTAVYYCAKQAWAYALYTNFYSGDYGYWGQGTQVTVSS,polyreactivity (PSR sort gate),low polyreactivity
QVQLVESGGGLVQAGGSLRLSCAASGRTFYAYAMGWSRQAPGKERELVAAITSGASTYYADSVKGRFTISRDNAKNTVYLQMNSLKPEDTAVYYCAKRVRYYKPGYDYWGQGTQVTVSS,polyreactivity (PSR sort gate),low polyreactivity
QVQLVESGGGLVQAGGSLRLSCAASGRTFAAYAMGWYRQAPGKERELVAAITSGGGTYYADSVKGRFTISRDNAKNTVYLQMNSLKPEDTAVYYCAADYISVYGYEYYYWGQGTQVTVSS,polyreactivity (PSR sort gate),high polyreactivity
QVHLVESVGGLVQAGGSLRLSCAASGRIFGYYAMGWYRQAPGKERELVAAISTNGGTTYYADSVKGRFTISRDNAKNTVYLQMNSLKPEDTAVYYCAATYTVPGHARYDYWGQGTQVTVSS,polyreactivity (PSR sort gate),low polyreactivity
